Test results: the DeepSol protein solubility set

Assay: soluble on expression in E. coli; label from the status in PepcDB or PDB records

Sequence | soluble on expression in E. coli
MNEQIRTILAEDGTKTSKIRKLLLLGLTHREIADLVTRGNRGFVWNVYKRMRDEGLIVSAGTPTATTTPELDYSFRRKFGVEIEAYNCTCQRLVRELTEAGIEVASERYNHDLRPHWKLVTDSSLNGNDTFELVSPILEGEDGLEKLERVCWVLDSCNVKINGSCGLHVHMNAEDFNITTWRNLLLSYKHAEAEIDKFMPASRRGGSNTYCGSLIQFPDERIRSARNIRELQGLFPSRYMKVNLQAYSRHRTVEFRQHSGTISFTKIENWVCFLDRMITFASVGSLPAGIRLEDFPFLGEKQKLYYKLRTKKLAV | not soluble
MNERLKEKLAVLPEQPGCYLMKDKHGTVIYVGKAKSLKERVRSYFTGTHDGKTQRLVEEIADFEYIVTSSNAEALILEMNLIKKHDPKYNVMLKDDKSY | soluble
MNETKVLIEKITEGIQEKKGKNIVIADLTNIDDTICKYFVICQGNSPSQVIAIVDSIKEFTRKGAGTKPSAIDGQRNAEWVAMDFSDVLVHVFLPEARNFYNLEHLWADAKLTTIPDID | soluble
MNETPTRVYAEIDLDAVRANVRALRARAPRSALMAVVKSNAYGHGAVPCARAAQEAGAAWLGTATPEEALELRAAGIQGRIMCWLWTPGGPWREAIETDIDVSVSGMWALDEVRAAARAAGRTARIQLKADTGLGRNGCQPADWAELVGAAVAAQAEGTVQVTGVWSHFACADEPGHPSIRLQLDAFRDMLAYAEKEGVDPEVRHIANSPATLTLPETHFDLVRTGLAVYGVSPSPELGTPAQLGLRPAMTLRASLALVKTVPAGHGVSYGHHYVTESETHLALVPAGYADGIPRNASGRGPVLVAGKIRRAAGRIAMDQFVVDLGEDLAEAGDEAVILGDAERGEPTAEDWAQAAHTIAYEIVTRIGGRVPRVYLGGLEHHHHHH | soluble
MNFDLFADEASRRWTETLAPGAVILRGHAYDDAPALLAALQTVIACAPLRNMITPGGFVMSVAMSNCGQLGWVTDEQGYRYTSHDPLSGEAWPAMPEAFSLLAKQAASEAGFADFEPDACLINRYDVGTRMSLHQDKNERDFHQPIVSVSLGLSATFLFGGMVRSDKAQRVPLTHGDVVVWGGESRLYFHGILPLKSGAVPEGMPDECRFNLTFRKAGLEHHHHHH | soluble
MNFETVIGLEVHVELKTKSKIFSSSPNAFGAPPNTQTNVIDLGYPGVLPVLNRQAVEFAMKAAMALNCEIATETKFDRKNYFYPDNPKAYQISQYDQPLGKNGWIEIEVNGKKKKIGITRIHLEEDAGKLTHTGDGYSLVDFNRQGTPLIEIVSEPDIRSPEEAYAYLEKLKAIIQYTGVSDCKMEEGSLRCDANISLRPIGSDKFGTKTELKNLNSFNFVRMGLEYEAKRQEKILLSGGVIRQETRRFDEATKTTVLMRVKEGSEDYRYFPEPDLVMLYIDDEWKERVRASIPELPDARRKRYIEEWGLPEYDAKVLTLTKEMADFFEATVANGADPKLASNWLMVEVSGYLNAEQKELHDIALTPESLAGMIKLIQDGTISSKIAKKVFKELVEHGGDPERIVKEKGLVQISDEGALRKIVLEVLDANPQSVEDYKNGKDRALGFLVGQVMKATKGQANPPLVNKLLVEEIGKR | not soluble
MNFHFTLDNDRKRRRSLSIDIDINFNDKAPGTSSDNEQRAPKRRADEEAVNAVPKNLLTTSSTFARAVIPAAPAISSANNKMAPQSVTATAKTTTNRGKVSGEGEYQLIKNEVLCSPYGNQYEVLEFLGKGTFGQVVKAWKKGTSEIVAIKILKKHPSYARQGQIEVSILSRLSNENSEEFNFVRAFECFNHKSHTCLVFEMLEQNLYDFLKQNKFMPLPLNAIRPILFQVLTALLKLKSLGLIHADLKPENIMLVDPQQQPYRVKVIDFGSASHRSKAVTNTYLQSRYYRAPEIILGLPFNESIDMWSLGCVIAELFLGWPLYPGSSEYDQIRFIIQTQGLPPTSMLESASKLHRFFKEVKSESPNHTNVGGSYYRLKTVEEYEASSSTAKSKETRKYIFNVIDDISRVCYGFESDPVEHLCDRIDRQEFVDVLKKMLVLNPDFRITPAEGLESKFVTMTHINGYNFANYVHEAHKRMEICRKPGPAMATPYRAANVATPITPVEKPPAPKLQQPMIAVLPQLNQIAATNIPPVPTQPDLTNLMHHYSQMAAATGSAATAAQFFYQPLPPAPLFQYAQLHHPFAARPPHFLSLATPSHMVPQFVPVPIMDPSMLQGQWPPGAAQQFAVLANDIMRVPAPQGINQMFASTPQTFSLPQFLSSSIPSATTAFNGNAPNIPFPEENSSWALGTAAQQQQQQAQRAQSMINGNVKVKPLAAQPKKNSPAPSVITLSSDEDSNGAGSSNSGSTTRTGAVNPVRNDTLPMGNTIKTEDILVPPTTFDGQLPNLQYFPGSHLFDPKTVAGLLPNPFLDTSHIPRAFN | not soluble
